From US20210403527A1 (Regeneron, published 2021)
Residue numbers refer to the chain shown, from its start.

Legend:
Assay in all cases: cell-based or functional assay
[1] = target: HLA-A2/NY-ESO-1 (157-165) complex on cells (human)
[2] = target: single chain HLA-A2 presenting an NY-ESO-1 (157-165) peptide, overexpressed on IM9 cells
[3] = target: HLA-A2/NY-ESO-1 (157-165) complex on cells (human); remark: listed apart in the source

B1: composite TCR 001 (human variable domains, mouse constant domains) (TCR, V domains shown)
V domain 1: DAKTTQPNSMESNEEEPVHLPCNHSTISGTDYIHWYRQLPSQGPEYVIHGLTSNVNNRMASLAIAEDRKSSTLILHRATLRDAAVYYCILRPDSWGKFQFGAGTQVVVTP
V domain 2: NAGVTQTPKFRILKIGQSMTLQCAQDMNHNYMYWYRQDPGMGLKLIYYSVGAGITDKGEVPNGYNVSRSTTEYFPLRLELAAPSQTSVYFCASSYSGGSPLHFGNGTRLTVTE
[1]
  percent cytotoxicity (calcein release), IM-9 target cells, T cell:target cell ratio 0.78, Mean: 8.3%
  percent cytotoxicity (calcein release), IM-9 target cells, T cell:target cell ratio 1.56, Mean: 16.2%
  percent cytotoxicity (calcein release), IM-9 target cells, T cell:target cell ratio 3.125, Mean: 28.9%
  percent cytotoxicity (calcein release), IM-9 target cells, T cell:target cell ratio 6.25, Mean: 44.4%
  percent cytotoxicity (calcein release), IM-9 target cells, T cell:target cell ratio 12.5, Mean: 55.6%
  percent cytotoxicity (calcein release), IM-9 target cells, T cell:target cell ratio 25, Mean: 65.4%
  percent cytotoxicity (calcein release), IM-9 target cells, T cell:target cell ratio 50, Mean: 72.6%
[2]
  percent cytotoxicity (calcein release), IM-9++ target cells, T cell:target cell ratio 0.78, Mean: 13.3%
  percent cytotoxicity (calcein release), IM-9++ target cells, T cell:target cell ratio 1.56, Mean: 25.6%
  percent cytotoxicity (calcein release), IM-9++ target cells, T cell:target cell ratio 3.125, Mean: 43.6%
  percent cytotoxicity (calcein release), IM-9++ target cells, T cell:target cell ratio 6.25, Mean: 57.3%
  percent cytotoxicity (calcein release), IM-9++ target cells, T cell:target cell ratio 12.5, Mean: 65.9%
  percent cytotoxicity (calcein release), IM-9++ target cells, T cell:target cell ratio 25, Mean: 68.7%
  percent cytotoxicity (calcein release), IM-9++ target cells, T cell:target cell ratio 50, Mean: 70%

B2: TCR188 (TCR, V domains shown)
V domain 1: DAKTTQPNSMESNEEEPVHLPCNHSTISGTDYIHWYRQLPSQGPEYVIHGLTSNVNNRMASLAIAEDRKSSTLILHRATLRDAAVYYCILNTGTASKLTFGTGTRLQVTL
V domain 2: GAVVSQHPSWVICKSGTSVKIECRSLDFQATTMFWYRQFPKQSLMLMATSNEGSKATYEQGVEKDKFLINHASLTLSTLTVTSAHPEDSSFYICSAKEGTEAFFGQGTRLTVV
[3]
  Signal to Noise (S/N) ratio (RLU to peptide pulsed APCs divided by RLU to non-pulsed APCs), AP-1 luciferase reporter T cells: 5.1 ratio

B3: TCR063 (TCR, V domains shown)
V domain 1: QKEVEQNSGPLSVPEGAIASLNCTYSDRGSQSFFWYRQYSGKSPELIMSIYSNGDKEDGRFTAQLNKASQYVSLLIRDSQPSDSATYLCAVNILASGGSYIPTFGRGTSLIVHP
V domain 2: ETGVTQTPRHLVMGMTNKKSLKCEQHLGHNAMYWYKQSAKKPLELMFVYNFKEQTENNSVPSRFSPECPNSSHLFLHLHTLQPEDSALYLCASSHGTGYNYGYTFGSGTRLTVV
[3]
  Signal to Noise (S/N) ratio (RLU to peptide pulsed APCs divided by RLU to non-pulsed APCs), AP-1 luciferase reporter T cells: 11.2 ratio

B4: TCR050 (TCR, V domains shown)
V domain 1: DAKTTQPNSMESNEEEPVHLPCNHSTISGTDYIHWYRQLPSQGPEYVIHGLTSNVNNRMASLAIAEDRKSSTLILHRATLRDAAVYYCILREGNNDMRFGAGTRLTVKP
V domain 2: NAGVTQTPKFRILKIGQSMTLQCAQDMNHNYMYWYRQDPGMGLKLIYYSVGAGITDKGEVPNGYNVSRSTTEYFPLRLELAAPSQTSVYFCASSWTDNQPQHFGDGTRLSIL
[3]
  Signal to Noise (S/N) ratio (RLU to peptide pulsed APCs divided by RLU to non-pulsed APCs), AP-1 luciferase reporter T cells: 15.5 ratio

B5: TCR001 (TCR, V domains shown)
V domain 1: B1 V domain 1
V domain 2: B4 V domain 2 with W95Y, T96S, D97G, N98G, Q99S, Q101L, D105N, S110T, I111V, L112T
[3]
  Signal to Noise (S/N) ratio (RLU to peptide pulsed APCs divided by RLU to non-pulsed APCs), AP-1 luciferase reporter T cells: 25.4 ratio
